Reference: patent US20240325555A1 (LANOVA MEDICINES, published 2024)
Where a chain is given by its changes, count along the chain named. Read-outs that look alike come from different tables or passages of the source. Each block holds one binder with its values, some of them ahead of it.

Key:
[1] = target: T1, cynomolgus LIV-1 (cynomolgus, UniProt A0A2K5WH46 30-741); test: FACS, HEK293/Cyno_LIV-1 cells
Description: (§1) In this example, cell based binding of chimeric Abs on human and cyno LIV-1 over-expressing HEK 293 cells were assessed using flow cytometry.
(§2) Briefly, cells were incubated with chimeric Abs (from 100 nM, 5 folds dilution, 8 points). After incubation at 4° C. for 60 minutes, the cells were washed with 2% FBS/PBS buffer twice, then stained with fluorescent conjugated secondary antibody at 4° C. for 30 minutes. After that the cells were washed twice and resuspended in 80 μL of 2% FBS/PBS buffer. Fluorescent signal of binding was detected using Agilent. The EC50 was calculated using the GraphPad Software (LaJolla, CA).

[2] = target: T2, human LIV-1 (human, UniProt Q13433 29-755); test: FACS, HEK293/H_LIV-1 cells
T2 construct: whole, on cells; also called H-LIV1
T2 sequence (looked up): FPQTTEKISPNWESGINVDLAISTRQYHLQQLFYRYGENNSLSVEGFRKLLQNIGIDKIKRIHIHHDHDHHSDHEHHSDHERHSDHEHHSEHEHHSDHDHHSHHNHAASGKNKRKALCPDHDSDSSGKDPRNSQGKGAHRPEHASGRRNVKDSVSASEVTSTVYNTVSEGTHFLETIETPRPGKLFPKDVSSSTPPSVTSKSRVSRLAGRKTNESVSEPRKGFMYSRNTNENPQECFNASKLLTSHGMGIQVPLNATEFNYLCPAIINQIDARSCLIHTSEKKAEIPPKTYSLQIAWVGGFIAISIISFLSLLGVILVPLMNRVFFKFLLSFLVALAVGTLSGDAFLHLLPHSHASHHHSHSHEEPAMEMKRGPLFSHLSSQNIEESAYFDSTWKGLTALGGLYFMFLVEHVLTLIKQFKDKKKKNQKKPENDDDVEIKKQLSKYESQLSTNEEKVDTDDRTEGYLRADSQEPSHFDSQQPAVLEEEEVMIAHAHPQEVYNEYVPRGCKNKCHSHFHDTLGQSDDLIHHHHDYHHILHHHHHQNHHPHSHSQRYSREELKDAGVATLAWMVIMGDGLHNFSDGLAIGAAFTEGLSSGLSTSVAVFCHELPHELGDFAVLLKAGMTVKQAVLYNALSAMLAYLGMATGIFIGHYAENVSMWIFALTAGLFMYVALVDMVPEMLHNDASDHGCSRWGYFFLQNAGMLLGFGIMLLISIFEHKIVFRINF
Description: as §1, §2

[3] = target: T1, cynomolgus LIV-1; test: FACS, HEK293/Cyno_LIV-1 cells; remark: listed apart in the source
Target sequence in this assay (A0A2K5WH46 entry or part of it): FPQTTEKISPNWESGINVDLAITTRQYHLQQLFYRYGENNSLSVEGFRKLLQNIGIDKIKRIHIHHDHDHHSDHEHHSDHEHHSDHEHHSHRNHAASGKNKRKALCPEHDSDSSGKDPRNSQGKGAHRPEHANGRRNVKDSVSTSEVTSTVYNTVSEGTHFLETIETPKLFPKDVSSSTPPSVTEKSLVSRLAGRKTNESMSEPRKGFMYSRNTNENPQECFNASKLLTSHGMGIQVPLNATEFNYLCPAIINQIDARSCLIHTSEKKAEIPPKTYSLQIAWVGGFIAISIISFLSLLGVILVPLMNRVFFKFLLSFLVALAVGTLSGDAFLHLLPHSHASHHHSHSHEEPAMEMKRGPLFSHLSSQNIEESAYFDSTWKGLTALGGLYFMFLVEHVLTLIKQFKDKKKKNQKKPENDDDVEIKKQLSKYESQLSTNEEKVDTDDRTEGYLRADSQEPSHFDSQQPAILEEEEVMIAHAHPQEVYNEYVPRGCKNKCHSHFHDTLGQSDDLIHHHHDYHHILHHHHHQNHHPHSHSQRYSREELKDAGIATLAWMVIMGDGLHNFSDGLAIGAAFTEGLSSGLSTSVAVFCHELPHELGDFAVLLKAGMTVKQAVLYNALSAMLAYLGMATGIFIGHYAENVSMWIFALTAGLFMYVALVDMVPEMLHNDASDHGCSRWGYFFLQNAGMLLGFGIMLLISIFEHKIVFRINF

[4] = target: T2, human LIV-1; test: FACS, HEK293/H_LIV-1 cells; remark: listed apart in the source
Description: In this example, cell based binding of humanized antibodies (hu Abs) on human LIV-1-expressing cells were assessed using flow cytometry.
Cell based binding of hu-Abs on human LIV-1 expressing cells were assessed using flow cytometry. Briefly, the HEK293/H_LIV-1 cells were incubated with hu-Abs (from 100 nM, 6 folds dilution, 8 points). After incubation at 4° C. for 60 minutes, the cells were washed with FACS buffer twice, then stained with fluorescent conjugated secondary antibody at 4° C. for 30 minutes. After that the cells were washed twice and analyzed by flow cytometry.

B1: 82C7C7 (antibody, V domains shown)
VH: EVQLQQSGAELVKPGASIKLSCTPSGFNIKDTFIHWVKQRPEQGLEWIGRIDPANGNTRYDPKFQGKATITADTSSNTAYLQLISLTSEDTAVYYCAGGSISTVVPDYWGQGTTLTVSS
VL: DVVVTQTPLSLPVSLGDQASISCRSSQSLVHNNGNTYLHWYLQKPGQSPKLLIYKVSNRFSGVPDRFSGSGSGTDFTLKISRVEAEDLGVYFCSQSTHVPYTFGGGTKLEIK
notes: Tested as chimeric antibody
EC50 [1]: 0.5 nM
Top (MFI) [1]: 7130 MFI
EC50 [2]: 0.61 nM
Top (MFI) [2]: 12300 MFI

B2: 92E4E10 (antibody, V domains shown)
VH: EVQLQQSGTVLARPGASVKISCKASGYRFTSYWMHWVKQRPGQGLEWIGAIYPGNSDTTYNQKFKGKAKLTAVTSASTAYMDLSSLTNEDSAVYYCTSLLLRSPFDYWGQGTTLTVSS
VL: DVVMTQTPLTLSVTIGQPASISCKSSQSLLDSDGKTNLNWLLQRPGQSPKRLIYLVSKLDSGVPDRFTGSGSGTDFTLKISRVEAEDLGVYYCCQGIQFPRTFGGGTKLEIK
notes: Tested as chimeric antibody
EC50 [1]: 0.15 nM
Top (MFI) [1]: 41300 MFI
EC50 [2]: 0.34 nM
Top (MFI) [2]: 66200 MFI

B3: 5D6B10.Z5 (antibody, V domains shown)
VH: QVQLVESGGGVVQPGRSLRLSCTVSGFSLTTYGIHWVRQSPGKGLEWLGVIWTGGTTDYNAAFISRLTISKDNSKSTLYFQMNSLRAEDTAVYYCARGPSSYWGQGTLVTVSS
VL: EIVMTQSPATLSVSPGERATVSCKASQNVDTNVVWYQQKPGQSPRALIHSASYRYSGVPDRFSGSGSGTDFTLTISSLQSEDFAVYFCQQYNNYPWTFGQGTKVEIK
EC50 [3]: 1.72 nM
Top (MFI) [3]: 12400 MFI
EC50 [4]: 0.17 nM
Top (MFI) [4]: 43400 MFI

B4: 5D6B10.Z10 (antibody, V domains shown)
VH: QVQLQESGPGLVKPSGTLSLTCAVSGFSLTTYGIHWVRQSPGKGLEWLGVIWTGGTTDYNAAFISRLTISKDKSKNQVSLKLSSVTAADTAVYYCARGPSSYWGQGTLVTVSS
VL: B3 VL with V21L, H49Y, D60A, D70E
EC50 [3]: 0.47 nM
Top (MFI) [3]: 25800 MFI
EC50 [4]: 0.42 nM
Top (MFI) [4]: 63800 MFI

B5: 5D6B10.Z2 (antibody, V domains shown)
VH: B3 VH with T23A, S40A, G49A, L67F, F80L
VL: B3 VL
EC50 [3]: 4.56 nM
Top (MFI) [3]: 14900 MFI
EC50 [4]: 0.18 nM
Top (MFI) [4]: 46700 MFI

B8: 5D6B10.Z11 (antibody, V domains shown)
VH: B4 VH
VL: B3 VL
EC50 [3]: 11.6 nM
Top (MFI) [3]: 18300 MFI
EC50 [4]: 0.29 nM
Top (MFI) [4]: 55300 MFI

B11: 5D6B10.Z8 (antibody, V domains shown)
VH: B3 VH with E6Q, L78V, R86Q, V92I
VL: B3 VL
EC50 [3]: 4 nM
Top (MFI) [3]: 12100 MFI
EC50 [4]: 0.19 nM
Top (MFI) [4]: 45700 MFI

B16: 79F5G5 (antibody, V domains shown)
VH: EVQLQQSGAELVRSGASVKLSCTASGFNIKDYYMHWVKQRPEQGLEWIGWIDPENGDTEYAPKFQGKATLTADTSSNTAYLQLSSLTFEDTAVYYCPHGGGLRVFDYWGQGTSLTVSS
VL: DVLMTQIPLSLSVSLGDQASISCRSSQSIVHSNGNTYLEWYLQKPGQSPKLLIYKVSNRFSGVPDRFSGSGSGTDFTLKISRVEAEDLGVYYCFQGSHVPWTFGGGTKLEIK
notes: Tested as chimeric antibody
EC50 [1]: 1.85 nM
Top (MFI) [1]: 7020 MFI
EC50 [2]: 9.45 nM
Top (MFI) [2]: 17500 MFI

B17: 94C4B9 (antibody, V domains shown)
VH: EVQLQQSGTVLARPGASVKMSCKASGYTFINYWMHWVKQRPGQGLEWIGAFYPGNSDTSYNQKFKDKAKLTAVTSTSTAYMEFSSLTNEDSAVYYCTRDFTAVPYFDYWGQGTTLTVSS
VL: B16 VL with V2I, I7T, S12P, H98Y, W101L, G105V, I111L
notes: Tested as chimeric antibody
EC50 [1]: 0.15 nM
Top (MFI) [1]: 7860 MFI
EC50 [2]: 0.22 nM
Top (MFI) [2]: 11600 MFI

B18: 90H4F8 (antibody, V domains shown)
VH: QVQLQQSGPELVKPGASVRISCKASGYTFTSYHMHWVKQRPGQGLEWIGWIYPGNVKNQSNEKFKGKATLTADKSSSTAYMHLSSLTSEDSAVYFCARSDITRAFFAYWGQGTLVTVSA
VL: B16 VL with I7T, S12P, V99G, W101Y
notes: Tested as chimeric antibody
EC50 [1]: 0.43 nM
Top (MFI) [1]: 6880 MFI
EC50 [2]: 1.08 nM
Top (MFI) [2]: 12200 MFI

B19: 99B3E8 (antibody, V domains shown)
VH: B17 VH with A16T, K38R, K63N, Y105F
VL: B16 VL with I7T, S12P, H98Y, W101L, G105V, I111L
notes: Tested as chimeric antibody
EC50 [1]: 0.34 nM
Top (MFI) [1]: 8240 MFI
EC50 [2]: 1.04 nM
Top (MFI) [2]: 12600 MFI

B20: 124H4D11.p2.z15 (antibody, V domains shown)
VH: QVPLVQSGAEVVKPGASVKLSCKASGFNIKDYYMHWVKQAPGQGLEWIGWIDPENDDTEYDPKFQGRATMTADTSTSTAYLELSSLRSEDTAVYYCNARYYAFDYWGQGTTVTVSS
VL: B16 VL with I7S, S12P, S14T, D17Q, Q18P, G34A, K44R, D75E, H98Q, W101P
EC50 [3]: 5.37 nM
Top (MFI) [3]: 6910 MFI
Top (MFI) [4]: 16800 MFI

B22: 124H4D11.p2.z14 (antibody, V domains shown)
VH: B20 VH
VL: DVLMTQSPLSLPVTLGQPASISCRSSQSIVHSNANTYLEWYLQRPGQSPRLLIYKVSNRFSGVPDRFSGSGSGTDFTLKISRVEAEDVGVYYCFQGSQVPPTFGQGTKLEIK
EC50 [3]: 0.5 nM
Top (MFI) [3]: 7670 MFI
Top (MFI) [4]: 16800 MFI

Results, then the binder that gave them:

EC50 [3]: 0.13 nM
Top (MFI) [3]: 19600 MFI
EC50 [4]: 0.16 nM
Top (MFI) [4]: 49800 MFI
B6: 5D6B10.Z1 (antibody, V domains shown)
VH: B3 VH with T23A, S40A, G49A, L67F, F80L
VL: B3 VL with V21L, H49Y, D60A, D70E

EC50 [3]: 0.23 nM
Top (MFI) [3]: 17200 MFI
EC50 [4]: 0.33 nM
Top (MFI) [4]: 51200 MFI
B7: 5D6B10.Z3 (antibody, V domains shown)
VH: B3 VH with T23A, S40A, G49A, L67F, F80L
VL: B3 VL with E1D, A19V, L78V, Q100G, V104L

EC50 [3]: 0.23 nM
Top (MFI) [3]: 16500 MFI
EC50 [4]: 0.24 nM
Top (MFI) [4]: 52600 MFI
B9: 5D6B10.Z9 (antibody, V domains shown)
VH: B3 VH with E6Q, L78V, R86Q, V92I
VL: B3 VL with E1D, A19V, L78V, Q100G, V104L

EC50 [3]: 0.16 nM
Top (MFI) [3]: 16700 MFI
EC50 [4]: 0.24 nM
Top (MFI) [4]: 52700 MFI
B10: 5D6B10.Z6 (antibody, V domains shown)
VH: B3 VH
VL: B3 VL with E1D, A19V, L78V, Q100G, V104L

EC50 [3]: 0.5 nM
Top (MFI) [3]: 26300 MFI
EC50 [4]: 0.33 nM
Top (MFI) [4]: 64300 MFI
B12: 5D6B10.Z13 (antibody, V domains shown)
VH: B4 VH with E6Q, A23T, S79F, L80F, L82M, V85L
VL: B3 VL with V21L, H49Y, D60A, D70E

EC50 [3]: 0.46 nM
Top (MFI) [3]: 24900 MFI
EC50 [4]: 0.3 nM
Top (MFI) [4]: 60300 MFI
B13: 5D6B10.Z12 (antibody, V domains shown)
VH: B4 VH
VL: B3 VL with E1D, A19V, L78V, Q100G, V104L

EC50 [3]: 0.2 nM
Top (MFI) [3]: 19800 MFI
EC50 [4]: 0.28 nM
Top (MFI) [4]: 53000 MFI
B14: 5D6B10.Z4 (antibody, V domains shown)
VH: B3 VH
VL: B3 VL with V21L, H49Y, D60A, D70E

EC50 [3]: 0.2 nM
Top (MFI) [3]: 8390 MFI
Top (MFI) [4]: 19400 MFI
B15: 124H4D11.p2.z2 (antibody, V domains shown)
VH: B20 VH with P3Q, L20V, K38R, A68V, A79V, L81M, N97A, T111M
VL: DVLMTQSPSSLSASVGDRVTITCRSSQSIVHSNANTYLEWYLQKPGKSPKLLIYKVSNRFSGVPDRFSGSGSGTEFTLTISSVQPEDFAVYYCFQGSQVPPTFGQGTRLEIK

EC50 [3]: 0.25 nM
Top (MFI) [3]: 8070 MFI
EC50 [4]: 0.58 nM
Top (MFI) [4]: 15600 MFI
B21: 124H4D11.p2.z5 (antibody, V domains shown)
VH: B20 VH with P3Q, L20V, K38R, A68V, A79V, L81M, N97A, T111M
VL: B22 VL with R50K, D75E, V88L, Q105G
